Results: patent US20230091175A1 (SYSMEX, published 2023)

T1: interleukin 8 (CXCL8) (100-175: Shenandoah Biotechnology, Inc.) (UniProt P10145 28-99)
T1 construct: the antibodies tested are mouse anti-human IL-8 antibodies; also called IL-8
T1 sequence (looked up): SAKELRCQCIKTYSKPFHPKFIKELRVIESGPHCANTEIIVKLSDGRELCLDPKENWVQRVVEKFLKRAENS

B1: mouse anti-human IL-6 antibody (clone 58-1), original (unmodified) (Fab, V domains shown, not shown: a dimerising Fc or GST)
VH: EVQLQQSGPELVKPGASVKMSCKASGYTFTSYVMHWVKQKPGQGLEWIGYINPYNDGTKYNEKFKGKATLTSDKSSSTAYMELSSLTSEDSAVYYCAREGYGNLERDCWGQGTSVTVSS
VL: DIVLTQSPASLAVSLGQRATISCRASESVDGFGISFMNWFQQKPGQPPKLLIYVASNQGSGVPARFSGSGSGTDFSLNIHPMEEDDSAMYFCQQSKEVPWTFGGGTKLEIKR
notes: The heavy entry is VH-CH1 with part of the hinge; the light entry holds only the variable domain; Purified on Ni-NTA, so a His tag is implied but not described; also called Anti-IL-6 antibody (clone 58-1)
B2: R3 variant of anti-IL-6 antibody (clone 58-1) (Fab, V domains shown, not shown: a dimerising Fc or GST)
VH: EVQLQQSGPELVKPGASVKMSCKASGYTFTSYVMHWVKQKPGQGLEWIGYINPYNDGTKYNEKFKGKATLTSDKSSSTAYMELSSLTSEDSAVYYCAREGYGNLERDCWGQGTSVTVSS
VL: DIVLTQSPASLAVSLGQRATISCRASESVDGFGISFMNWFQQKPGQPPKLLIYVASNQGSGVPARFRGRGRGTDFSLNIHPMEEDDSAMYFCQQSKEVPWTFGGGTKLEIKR
notes: Light chain positions 63, 65, 67 (Chothia) changed to Arg; Fab; a His tag is implied by Ni-NTA purification but not described
B3: R4 variant of anti-IL-6 antibody (clone 58-1) (Fab, V domains shown, not shown: a dimerising Fc or GST)
VH: EVQLQQSGPELVKPGASVKMSCKASGYTFTSYVMHWVKQKPGQGLEWIGYINPYNDGTKYNEKFKGKATLTSDKSSSTAYMELSSLTSEDSAVYYCAREGYGNLERDCWGQGTSVTVSS
VL: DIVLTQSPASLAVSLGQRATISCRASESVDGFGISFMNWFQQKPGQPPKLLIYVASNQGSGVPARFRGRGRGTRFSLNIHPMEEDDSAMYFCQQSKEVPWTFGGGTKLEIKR
notes: Light chain positions 63, 65, 67, 70 (Chothia) changed to Arg; Fab
B4: R5 variant of anti-IL-6 antibody (clone 58-1) (Fab, V domains shown, not shown: a dimerising Fc or GST)
VH: EVQLQQSGPELVKPGASVKMSCKASGYTFTSYVMHWVKQKPGQGLEWIGYINPYNDGTKYNEKFKGKATLTSDKSSSTAYMELSSLTSEDSAVYYCAREGYGNLERDCWGQGTSVTVSS
VL: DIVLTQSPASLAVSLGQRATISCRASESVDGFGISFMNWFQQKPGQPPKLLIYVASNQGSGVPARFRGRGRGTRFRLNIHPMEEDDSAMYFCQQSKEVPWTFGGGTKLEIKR
notes: Light chain positions 63, 65, 67, 70, 72 (Chothia) changed to Arg; Fab
B5: mouse anti-human IL-6 antibody (clone 44-15), original (unmodified) (Fab, V domains shown, not shown: a dimerising Fc or GST)
VH: DVQLQESGPGLVKPSQTVSLTCTVTGISITTGNYRWSWIRQFPGNKLEWIGYIYYSGAITYNPSLTSRTTITRDTSMNQFFLEMISLTAEDTATYYCARDRYDYAVDFWGQGTSVTVSS
VL: DIQMTQSPASLSASVGETVTITCRSSENIYSFLTWFQQRQGKSPHLLVYYANTLAEGVPSRFSGSGSGTQFSLQINSLQPEDFGTYYCQHHYGTPWTFGGGTRLEIKR
notes: Fab; the light entry holds only the variable domain; a His tag is implied by Ni-NTA purification but not described; also called Anti-IL-6 antibody (clone 44-15)
B6: R3 variant of anti-IL-6 antibody (clone 44-15) (Fab, V domains shown, not shown: a dimerising Fc or GST)
VH: DVQLQESGPGLVKPSQTVSLTCTVTGISITTGNYRWSWIRQFPGNKLEWIGYIYYSGAITYNPSLTSRTTITRDTSMNQFFLEMISLTAEDTATYYCARDRYDYAVDFWGQGTSVTVSS
VL: DIQMTQSPASLSASVGETVTITCRSSENIYSFLTWFQQRQGKSPHLLVYYANTLAEGVPSRFRGRGRGTQFSLQINSLQPEDFGTYYCQHHYGTPWTFGGGTRLEIKR
notes: Light chain positions 63, 65, 67 (Chothia) changed to Arg; Fab
B7: R4 variant of anti-IL-6 antibody (clone 44-15) (Fab, V domains shown, not shown: a dimerising Fc or GST)
VH: DVQLQESGPGLVKPSQTVSLTCTVTGISITTGNYRWSWIRQFPGNKLEWIGYIYYSGAITYNPSLTSRTTITRDTSMNQFFLEMISLTAEDTATYYCARDRYDYAVDFWGQGTSVTVSS
VL: DIQMTQSPASLSASVGETVTITCRSSENIYSFLTWFQQRQGKSPHLLVYYANTLAEGVPSRFRGRGRGTRFSLQINSLQPEDFGTYYCQHHYGTPWTFGGGTRLEIKR
notes: as for B3
B8: R5 variant of anti-IL-6 antibody (clone 44-15) (Fab, V domains shown, not shown: a dimerising Fc or GST)
VH: DVQLQESGPGLVKPSQTVSLTCTVTGISITTGNYRWSWIRQFPGNKLEWIGYIYYSGAITYNPSLTSRTTITRDTSMNQFFLEMISLTAEDTATYYCARDRYDYAVDFWGQGTSVTVSS
VL: DIQMTQSPASLSASVGETVTITCRSSENIYSFLTWFQQRQGKSPHLLVYYANTLAEGVPSRFRGRGRGTRFRLQINSLQPEDFGTYYCQHHYGTPWTFGGGTRLEIKR
notes: as for B4
B9: mouse anti-human IL-8 antibody (clone 166-1), original (unmodified) (Fab, V domains shown, not shown: a dimerising Fc or GST)
VH: EVKLVESGGGLVKPGGSLKLSCAASGFTFNNYAMSWVRQTPEKRLEWVASISSGGNTYYPDSVKGRFTLSRDNARNILYLQMSRLRSEDTAMYYCARDKLRLPNWYFDVWGAGTTVTVSS
VL: DIVLTQSPPSLAVSLGQRATISCKASQSVDYDGDSYMNWYQQKPGQPPKVLIYGASNLESGIPARFSGSGSGTDFTLNIYPVEEEDAATYYCQQSNEDPPTFGGGTKLEIKR
notes: Fab; the light entry holds only the variable domain; a His tag is implied by Ni-NTA purification but not described; also called Anti-IL-8 antibody (clone 166-1)
B10: R3 variant of anti-IL-8 antibody (clone 166-1) (Fab, V domains shown, not shown: a dimerising Fc or GST)
VH: EVKLVESGGGLVKPGGSLKLSCAASGFTFNNYAMSWVRQTPEKRLEWVASISSGGNTYYPDSVKGRFTLSRDNARNILYLQMSRLRSEDTAMYYCARDKLRLPNWYFDVWGAGTTVTVSS
VL: DIVLTQSPPSLAVSLGQRATISCKASQSVDYDGDSYMNWYQQKPGQPPKVLIYGASNLESGIPARFRGRGRGTDFTLNIYPVEEEDAATYYCQQSNEDPPTFGGGTKLEIKR
notes: as for B6
B11: R4 variant of anti-IL-8 antibody (clone 166-1) (Fab, V domains shown, not shown: a dimerising Fc or GST)
VH: EVKLVESGGGLVKPGGSLKLSCAASGFTFNNYAMSWVRQTPEKRLEWVASISSGGNTYYPDSVKGRFTLSRDNARNILYLQMSRLRSEDTAMYYCARDKLRLPNWYFDVWGAGTTVTVSS
VL: DIVLTQSPPSLAVSLGQRATISCKASQSVDYDGDSYMNWYQQKPGQPPKVLIYGASNLESGIPARFRGRGRGTRFTLNIYPVEEEDAATYYCQQSNEDPPTFGGGTKLEIKR
notes: as for B3
B12: R5 variant of anti-IL-8 antibody (clone 166-1) (Fab, V domains shown, not shown: a dimerising Fc or GST)
VH: EVKLVESGGGLVKPGGSLKLSCAASGFTFNNYAMSWVRQTPEKRLEWVASISSGGNTYYPDSVKGRFTLSRDNARNILYLQMSRLRSEDTAMYYCARDKLRLPNWYFDVWGAGTTVTVSS
VL: DIVLTQSPPSLAVSLGQRATISCKASQSVDYDGDSYMNWYQQKPGQPPKVLIYGASNLESGIPARFRGRGRGTRFRLNIYPVEEEDAATYYCQQSNEDPPTFGGGTKLEIKR
notes: as for B4
B13: mouse anti-human IL-8 antibody (clone 146-1), original (unmodified) (Fab, V domains shown, not shown: a dimerising Fc or GST)
VH: EVQLVESGGGLVKPGGSLKLSCAASGFTFSSYAMSWVRQTPEKRLEWVATISNGGSYTYYPDSLKGRFTISRDNAKNTLYLQMSSLRSEDTAIYYCARGITGGVYFDYWGQGTTLTVSS
VL: DIQMTQSPASLSASVGETVTITCRASENIYSYLAWYQQKQGKSPHLLVYDAETLAEGVPSRFSGSGSGTQFSLKINSLQPEDFGSYYCQHHYGTPWTFGGGTKLEIKR
notes: Fab; the light entry holds only the variable domain; a His tag is implied by Ni-NTA purification but not described; also called Anti-IL-8 antibody (clone 146-1)
B14: R3 variant of anti-IL-8 antibody (clone 146-1) (Fab, V domains shown, not shown: a dimerising Fc or GST)
VH: EVQLVESGGGLVKPGGSLKLSCAASGFTFSSYAMSWVRQTPEKRLEWVATISNGGSYTYYPDSLKGRFTISRDNAKNTLYLQMSSLRSEDTAIYYCARGITGGVYFDYWGQGTTLTVSS
VL: DIQMTQSPASLSASVGETVTITCRASENIYSYLAWYQQKQGKSPHLLVYDAETLAEGVPSRFRGRGRGTQFSLKINSLQPEDFGSYYCQHHYGTPWTFGGGTKLEIKR
notes: as for B6
B15: R4 variant of anti-IL-8 antibody (clone 146-1) (Fab, V domains shown, not shown: a dimerising Fc or GST)
VH: EVQLVESGGGLVKPGGSLKLSCAASGFTFSSYAMSWVRQTPEKRLEWVATISNGGSYTYYPDSLKGRFTISRDNAKNTLYLQMSSLRSEDTAIYYCARGITGGVYFDYWGQGTTLTVSS
VL: DIQMTQSPASLSASVGETVTITCRASENIYSYLAWYQQKQGKSPHLLVYDAETLAEGVPSRFRGRGRGTRFSLKINSLQPEDFGSYYCQHHYGTPWTFGGGTKLEIKR
notes: as for B3
B16: R5 variant of anti-IL-8 antibody (clone 146-1) (Fab, V domains shown, not shown: a dimerising Fc or GST)
VH: EVQLVESGGGLVKPGGSLKLSCAASGFTFSSYAMSWVRQTPEKRLEWVATISNGGSYTYYPDSLKGRFTISRDNAKNTLYLQMSSLRSEDTAIYYCARGITGGVYFDYWGQGTTLTVSS
VL: DIQMTQSPASLSASVGETVTITCRASENIYSYLAWYQQKQGKSPHLLVYDAETLAEGVPSRFRGRGRGTRFRLKINSLQPEDFGSYYCQHHYGTPWTFGGGTKLEIKR
notes: as for B4

Experiments:
[1] = molecular target: T2, human IL6 protein, His and GST tags (active) (GTX00094-pro: GeneTex, Inc.) (human, UniProt P05231 30-212, limits assumed); test: SPR (Biacore 8K); affinity ratio with the original antibody as 1.0
T2 construct: Bought reagent; not shown: His and GST tags
Procedure: (§1) (4.1) For anti-IL-6 antibody, anti-IL-8 antibody, and anti-IL-12 antibody Affinity of the original antibodies and variants was measured using Biacore (registered trademark) 8K (Cytiva). As antigens, human IL6 protein, His and GST tags (active) (GTX00094-pro: GeneTex, Inc.), interleukin 8 (CXCL8) (100-175: Shenandoah Biotechnology, Inc.), and human IL 12 protein (Recombinant His, C-terminus) (aa23-328) (LS-G134297-50: LSBio, Inc.) were used. The antigen was immobilized to a sensor chip for Biacore (registered trademark) Series S Sensor Chip CM4 (GE Healthcare). Each antibody solution obtained in the above (3.2) was diluted to prepare an antibody solution for measurement. The concentration of each antibody in the antibody solution for measurement was as follows. In the solutions of the anti-IL-6 antibody (58-1) and its R3, R4 and R5 variants, the concentration was 100 nM, 50 nM, 25 nM, 12.5 nM and 6.25 nM. In the solution of the anti-IL-6 antibody (44-15), the concentration was 100 nM, 50 nM, 25 nM, 12.5 nM and 6.25 nM, and in the solutions of its R3, R4 and R5 variants, the concentration was 50 nM, 25 nM, 12.5 nM, 6.25 nM and 3.13 nM. In the solutions of the anti-IL-8 antibody (166-1) and its R3, R4 and R5 variants, the concentration was 100 nM, 50 nM, 25 nM, 12.5 nM and 6.25 nM. In the anti-IL-8 antibody (146-1) solution, the concentration was 100 nM, 50 nM, 25 nM, 12.5 nM and 6.25 nM, in the solution of its R3 variant, the concentration was 50 nM, 25 nM, 12.5 nM, 6.25 nM and 3.13 nM, and in the solutions of its R4 and R5 variants, the concentration was 25 nM, 12.5 nM, 6.25 nM, 3.13 nM and 1.56 nM. In the anti-IL-12 antibody solution, the concentration was 50 nM, 25 nM, 12.5 nM, 6.25 nM and 3.13 nM, in the solution of its R3 variant, the concentration was 25 nM, 12.5 nM, 6.25 nM, 3.13 nM and 1.56 nM, and in the solution of its R4 variant, the concentration was 12.5 nM, 6.25 nM, 3.13 nM, 1.56 nM and 0.78 nM.
(§2) The antibody solutions for measurement at each concentration were delivered to Biacore (registered trademark) 8K (Cytiva) (association time of 120 seconds and dissociation time of 1200 seconds). Measurement data was analyzed using Biacore (registered trademark) Evaluation software, and the data on the affinity of each antibody for an antigen was obtained.

[2] = molecular target: T2, human IL6 protein, His and GST tags …; test: SPR (Biacore 8K), antigen immobilized on CM4 chip, antibody as analyte
Procedure: as §1, §2

[3] = molecular target: T1, interleukin 8 (CXCL8) (100-175: …); test: SPR (Biacore 8K); affinity ratio with the original antibody as 1.0
Procedure: as §1, §2

[4] = molecular target: T1, interleukin 8 (CXCL8) (100-175: …); test: SPR (Biacore 8K), antigen immobilized on CM4 chip, antibody as analyte
Procedure: as §1, §2

KD ratio [1] | Kd [2] | KD ratio [3] | Kd [4] | Binder
1 | 0.198 nM |  |  | B1
2.4 | 0.0812 nM |  |  | B2
4.2 | 0.0472 nM |  |  | B3
7.1 | 0.0279 nM |  |  | B4
1 | 20.4 nM |  |  | B5
2.9 | 7.16 nM |  |  | B6
2.4 | 8.38 nM |  |  | B7
4.6 | 4.4 nM |  |  | B8
 |  | 1 | 1.64 nM | B9
 |  | 1.4 | 1.17 nM | B10
 |  | 2.8 | 0.595 nM | B11
 |  | 4.2 | 0.389 nM | B12
 |  | 1 | 15.3 nM | B13
 |  | 2.6 | 5.8 nM | B14
 |  | 4.9 | 3.14 nM | B15
 |  | 6.4 | 2.4 nM | B16
